Source: publication PMC8189437 (Molecular Cell, 2021)

T1: Gid1 (S. cerevisiae, UniProt P53076)
T1 sequence: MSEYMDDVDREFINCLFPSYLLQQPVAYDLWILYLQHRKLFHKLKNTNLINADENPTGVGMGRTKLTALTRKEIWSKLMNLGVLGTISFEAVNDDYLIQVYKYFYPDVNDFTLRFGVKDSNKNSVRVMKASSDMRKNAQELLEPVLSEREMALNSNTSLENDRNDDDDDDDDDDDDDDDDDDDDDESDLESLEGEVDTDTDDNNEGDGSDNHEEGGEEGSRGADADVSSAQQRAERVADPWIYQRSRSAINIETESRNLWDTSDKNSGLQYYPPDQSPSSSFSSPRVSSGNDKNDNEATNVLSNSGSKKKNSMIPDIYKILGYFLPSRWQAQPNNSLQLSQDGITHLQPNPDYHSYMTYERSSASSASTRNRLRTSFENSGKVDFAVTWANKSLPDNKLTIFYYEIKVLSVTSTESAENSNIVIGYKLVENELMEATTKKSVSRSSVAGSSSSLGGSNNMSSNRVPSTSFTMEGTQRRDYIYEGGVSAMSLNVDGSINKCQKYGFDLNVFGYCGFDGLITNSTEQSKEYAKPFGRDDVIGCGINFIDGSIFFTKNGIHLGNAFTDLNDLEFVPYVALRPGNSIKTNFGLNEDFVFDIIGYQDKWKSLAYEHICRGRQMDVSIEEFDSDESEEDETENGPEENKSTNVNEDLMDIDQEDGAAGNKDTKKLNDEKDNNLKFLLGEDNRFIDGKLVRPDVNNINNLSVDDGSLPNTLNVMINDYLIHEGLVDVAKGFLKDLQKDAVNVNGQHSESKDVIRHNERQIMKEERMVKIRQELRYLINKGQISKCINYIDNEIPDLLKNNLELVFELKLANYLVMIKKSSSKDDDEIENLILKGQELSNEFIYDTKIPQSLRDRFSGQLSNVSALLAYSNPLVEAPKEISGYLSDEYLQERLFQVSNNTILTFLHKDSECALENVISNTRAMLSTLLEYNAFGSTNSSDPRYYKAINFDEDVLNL

B1: Gid7 (natural protein)
chain: MSHTNKIAYVLNNDTEETASPSSVGCFDKKQLTKLLIHTLKELGYDSAANQLLLESGGYQNESNHIQTFFKLIKTGQFHLINWQIVCSLPLAHSSPLRSEWLQRLLIPTPTPATTSLFDHMLLQLQYLQQLMSSVNSSTCSDAEIATLRNYVEIMILVNRQIFLEFFHPVTNSASHKGPHTALPVLYLRKILKNFIEIWDSLLVSNDQFLNEENIFNPETTLRELSTYLTNPKLTAQLNLERDHLIDAISKYIDPNELVPKGRLLHLLKQAIKYQQSQDIFNIIDPDDDASFSSPPHRINLLQDNFSHDLTVTFQEWKTIQDTTDEIWFLTFSPNGKYLASATSESSRGYFITVYDVEQDFKIYKTCVSLSQSVLYLMFSPDSRYLVACPFSEDVTIYDMNATSLPDASATDSFLLYPSTRLSPMDSFKLDTTTYPDDTESSASSSSRPANANSNQSRVWCCDAFHTAERAGWMVVGSPDREAIVHSLTTKESLFSLKGRTCIALGHDENISGRKSIDPAKVLYKPTSSNGNWQYVEDDETFPRVHDVKISYDDKYVLLMTHQGVIDVYDFSGFPSKEELSKQTVDPKNFLIPRIARLDVGKNMTCISLPLNTTHQGFHRQQISESQHLVLVSLQDNELQMWDYKENILIQKYFGQKQQHFIIRSCFAYGNKLVMSGSEDGKIYIWDRIRGNLVSVLSGHSTVMSNSTKPMGKNCNVVASNPADKEMFASGGDDGKIKIWKISRN
B2: Gid8 with a C-terminal twin-Strep tag (natural protein)
chain: MTISTLSNETTKSGSCSGQGKNGGKDFTYGKKCFTKEEWKEQVAKYSAMGELYANKTIHYPLKIQPNSSGGSQDEGFATIQTTPIEPTLPRLLLNYFVSMAYEDSSIRMAKELGFIRNNKDIAVFNDLYKIKERFHIKHLIKLGRINEAMEEINSIFGLEVLEETFNATGSYTGRTDRQQQQQQQQFDIDGDLHFKLLLLNLIEMIRSHHQQENITKDSNDFILNLIQYSQNKLAIKASSSVKKMQELELAMTLLLFPLSDSADSGSIKLPKSLQNLYSISLRSKIADLVNEKLLKFIHPRIQFEISNNNSKFPDLLNSDKKIITQNFTVYNNNLVNGSNGTKITHISSDQPINEKMSSNEVTAAANSVWLNQRDGNVGTGSAATTFHNLENKNYWNQTSELLSSSNGKEKGLEFNNYYSSEFPYEPRLTQIMKLWCWCENQLHHNQIGVPRVEN

Legend:
Test in all cases: cryo-EM structure
[1] = target: GID^SR4 (S. cerevisiae, UniProt P53076;P40208;P40547;P38263;Q12508;P40492)
[2] = target: T1, Gid1
[3] = target: Gid7 (S. cerevisiae) (UniProt P25569)
[4] = target: B1

Chain of GID^SR4 (P40547 whole entry, chain 3 of 4): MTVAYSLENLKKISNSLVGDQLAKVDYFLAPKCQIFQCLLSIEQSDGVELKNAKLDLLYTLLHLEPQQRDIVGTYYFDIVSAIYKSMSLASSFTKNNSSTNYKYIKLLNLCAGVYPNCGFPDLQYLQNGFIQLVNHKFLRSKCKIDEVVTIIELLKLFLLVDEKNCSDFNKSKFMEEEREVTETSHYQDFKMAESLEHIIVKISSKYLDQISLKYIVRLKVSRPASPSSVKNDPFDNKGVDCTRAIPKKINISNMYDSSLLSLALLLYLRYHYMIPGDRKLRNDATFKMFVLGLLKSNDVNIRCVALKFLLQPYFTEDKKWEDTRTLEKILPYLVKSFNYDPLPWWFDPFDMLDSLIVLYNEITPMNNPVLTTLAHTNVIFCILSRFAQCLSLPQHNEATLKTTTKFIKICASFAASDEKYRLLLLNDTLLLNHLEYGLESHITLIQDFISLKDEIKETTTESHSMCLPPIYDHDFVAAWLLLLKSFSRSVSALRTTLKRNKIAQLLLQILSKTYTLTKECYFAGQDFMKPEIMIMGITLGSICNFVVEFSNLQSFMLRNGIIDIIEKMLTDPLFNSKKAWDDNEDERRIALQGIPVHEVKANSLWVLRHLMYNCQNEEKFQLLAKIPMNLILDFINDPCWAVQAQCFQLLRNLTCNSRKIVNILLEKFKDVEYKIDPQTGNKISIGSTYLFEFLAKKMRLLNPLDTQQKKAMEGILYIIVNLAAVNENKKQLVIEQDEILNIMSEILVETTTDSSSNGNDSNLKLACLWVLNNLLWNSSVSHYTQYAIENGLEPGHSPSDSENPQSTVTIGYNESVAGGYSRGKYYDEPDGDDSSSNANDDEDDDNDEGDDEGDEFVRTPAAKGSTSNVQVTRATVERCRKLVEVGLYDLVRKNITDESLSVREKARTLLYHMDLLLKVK
Chain of GID^SR4 (P38263 117-362, chain 4 of 4): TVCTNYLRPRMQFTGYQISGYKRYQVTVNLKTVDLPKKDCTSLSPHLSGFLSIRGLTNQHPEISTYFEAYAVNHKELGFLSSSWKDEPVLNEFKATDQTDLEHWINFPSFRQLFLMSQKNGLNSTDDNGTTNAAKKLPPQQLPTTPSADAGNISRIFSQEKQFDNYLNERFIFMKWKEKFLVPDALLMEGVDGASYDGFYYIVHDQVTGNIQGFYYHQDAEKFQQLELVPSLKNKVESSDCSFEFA
Chain of GID^SR4 (Q12508 whole entry, chain 5 of 4): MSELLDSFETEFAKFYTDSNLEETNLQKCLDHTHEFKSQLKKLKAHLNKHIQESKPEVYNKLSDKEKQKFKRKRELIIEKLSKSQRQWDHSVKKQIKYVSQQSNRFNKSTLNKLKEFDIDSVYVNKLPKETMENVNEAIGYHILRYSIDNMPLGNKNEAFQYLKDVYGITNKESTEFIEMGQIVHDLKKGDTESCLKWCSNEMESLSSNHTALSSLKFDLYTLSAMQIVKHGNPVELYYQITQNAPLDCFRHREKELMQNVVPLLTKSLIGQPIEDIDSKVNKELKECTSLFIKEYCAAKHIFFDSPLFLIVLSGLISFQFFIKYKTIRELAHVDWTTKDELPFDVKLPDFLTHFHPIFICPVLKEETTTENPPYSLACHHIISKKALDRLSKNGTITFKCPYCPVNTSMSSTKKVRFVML
Chain of GID^SR4 (P40492 whole entry, chain 6 of 4): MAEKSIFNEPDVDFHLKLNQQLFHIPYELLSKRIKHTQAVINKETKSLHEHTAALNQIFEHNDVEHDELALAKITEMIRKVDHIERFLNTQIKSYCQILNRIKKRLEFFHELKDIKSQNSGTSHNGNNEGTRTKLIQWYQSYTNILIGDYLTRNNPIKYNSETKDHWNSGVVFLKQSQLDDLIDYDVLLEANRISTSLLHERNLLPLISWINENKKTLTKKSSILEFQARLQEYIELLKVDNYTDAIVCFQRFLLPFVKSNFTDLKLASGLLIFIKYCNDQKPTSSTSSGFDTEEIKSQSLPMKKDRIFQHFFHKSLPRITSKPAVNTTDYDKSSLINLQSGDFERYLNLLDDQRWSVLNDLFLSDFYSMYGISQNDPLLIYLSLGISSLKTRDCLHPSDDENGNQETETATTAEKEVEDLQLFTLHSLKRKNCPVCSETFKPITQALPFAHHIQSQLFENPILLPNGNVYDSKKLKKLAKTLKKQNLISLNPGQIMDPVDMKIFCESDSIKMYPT

## B1
[1]
  binding result: binds
[2]
  binding result: binds
[3]
  stoichiometry N: 2

## B2
[4]
  binding result: binds
